Data: US10429300B2, “Surface plasmon resonance approach to monitor protein-ligand interactions” (The Johns Hopkins University, priority 2015, dated 2019)

What was measured:
[1] = test system: rNav1.2a/Kv2.1 VSD II paddle chimera; assay: Two-electrode voltage-clamp, rNav1.2a/Kv2.1 VSD II paddle chimera in Xenopus oocytes; assay type: cell-based, rat
Description: The DNA sequence of rat (r)Nav1.2a (provided by A. Goldin, University of California, Irvine, Irvine, Calif.), rKv2.1 (provided by K. J. Swartz, National Institutes of Health), and the rNav1.2a/Kv2.1 VSD II or IV chimera was confirmed by automated DNA sequencing, and cRNA was synthesized using T7 polymerase (mMessage mMachine™ kit; Life Technologies) after linearizing the DNA with appropriate restriction enzymes. Channels were expressed in Xenopus oocytes (obtained from Xenopus 1) and studied after a 1-d incubation after cRNA injection (incubated at 17° C. in 96 mM NaCl, 2 mM KCl, 5 mM HEPES, 1 mM MgCl2, 1.8 mM CaCl2, and 50 μg/ml gentamycin, pH 7.6 with NaOH) using two-electrode voltage-clamp recording techniques (OC-725C; Warner Instruments) with a 150-μl recording chamber. Data were filtered at 4 kHz and digitized at 20 kHz using pClamp™ 10 software (Molecular Devices). Microelectrode resistances were 0.5-1.5 MΩ when filled with 3 M KCl. For Kv chimera channel experiments, the external recording solution contained (mM): 50 KCl, 50 NaCl, 5 HEPES, 1 MgCl2, and 0.3 CaCl2, pH 7.6 with NaOH. For rNav1.2a experiments, the external recording solution contained (mM): 100 NaCl, 5 HEPES, 1 MgCl2, and 1.8 CaCl2, pH 7.6 with NaOH. All experiments were performed at ˜22° C. Leak and background conductances, identified by blocking the channel with agitoxin-2 (provided by K. J. Swartz), have been subtracted for all of the Kv channel currents shown. […]. After the addition of the toxin to the recording chamber, the equilibration between the toxin and the channel was monitored using weak depolarizations elicited at 5- or 10-s (R1629A/L1630A mutant) intervals. Voltage-activation relationships were obtained by measuring tail currents for Kv channels or steady-state currents and calculating conductance for Nav channels, and a single Boltzmann function was fitted to the data according to I/Imax=[1c+cexp(−zF(Vc−cV1/2)/RT)]^−1, where I/Imax is the normalized tail-current amplitude, z is the equivalent charge, V1/2 is the half-activation voltage, F is Faraday's constant, R is the gas constant, and T is temperature in kelvin. For all channels, voltage-activation relationships were recorded in the absence and presence of toxin. The ratio of currents (I/I0) recorded in the presence (I) and absence (I0) of toxin was calculated for voltages typically ranging from −140 to 10 cmV, depending on the construct. […] The apparent equilibrium dissociation constant (apparent KD) for Kv channels was calculated according to KD=((1/(1c−cFu^1/4))c−c1)[toxin], assuming four independent toxin-binding sites per channel. Results are given as mean±SEM unless noted otherwise. Offline data analysis was performed using Clampfit 10™ (Molecular Devices), Origin 8.0™ (OriginLab), and Excel™ (Microsoft). […]

[2] = target: T1, rNav1.2a VSD IV paddle peptide (R1629A/L1630A, SEQ ID NO: 4) (Rattus norvegicus, UniProt P04775, L1630A/R1629A); assay: SPR on immobilized rNav1.2a VSD IV paddle peptide; assay type: binding
T1 construct: purchased ProteoGenix; host or cells: chemical synthesis (Fmoc solid phase)
T1 sequence (P04775 1605-1636 R1629A/L1630A): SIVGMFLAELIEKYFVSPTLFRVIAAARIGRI

[3] = target: rNav1.2a/Kv2.1 VSD IV paddle chimera; settings: WT chimera; read-out: apparent KD, WT chimera (previously shown); cited from earlier work
[4] = target: rNav1.2a/Kv2.1 VSD IV chimera L1630A; settings: L1630A substitution; read-out: apparent KD; cited from earlier work
[5] = heterogeneous ligand model, 15-2,000 nM toxin, 50 fmol peptide, n=3, mean±SD
[6] = heterogeneous ligand model, 50 fmol peptide
[7] = heterogeneous ligand model, 50 fmol peptide, n=3, mean±SD

Sequence of rNav1.2a/Kv2.1 VSD II paddle chimera (P04775 832-856 limits assumed, stated change not applied): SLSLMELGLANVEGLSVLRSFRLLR
Sequence of rNav1.2a/Kv2.1 VSD IV paddle chimera (P04775 1605-1636 limits assumed, stated change not applied): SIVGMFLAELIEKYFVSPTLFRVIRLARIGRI
Sequence of rNav1.2a/Kv2.1 VSD IV chimera L1630A (P04775 1605-1636 L1630A limits assumed): as the sequence (P04775 1605-1636 limits assumed, stated change not applied) above, with L26A counted along it

B1: CssIV: β-scorpion toxin from Centruroides suffusus suffusus (protein)
chain: KEGYLVNSYTGCKFECFKLGDNDYCLRECRQQYGKGSGGYCYAFGCWCTHLYEQAVVWPLPNKTCN
concentration required to begin inhibiting the chimera [1]: 1 µM | depolarizing shift in V1/2 ([1]; 1 μM toxin, Boltzmann fit, n=3): ~14 mV | V1/2 in the presence of toxin ([1]; 1 μM toxin, control 33±2 mV): 47±1 mV | SPR binding to VSD IV paddle peptide ([2]; 100 nM toxin, 500 fmol peptide): no RUs could be detected

B2: AaHII: Nav channel-selective α-scorpion toxin from Androctonus australis hector; model toxin (protein)
chain: VKDGYIVDDVNCTYFCGRNAYCNEECTKLKGESGYCQWASPYGNACYCYKLPDHVRTKGPGRCH
interaction with VSD II paddle chimera [1]: no interaction was observed | association rate ka1 [2, 5]: 2330 ± 910 M⁻¹ s⁻¹ | association rate ka2 [2, 5]: 38200 ± 4700 M⁻¹ s⁻¹ | dissociation rate kd1 [2, 5]: 0.000979 ± 0.00014 s⁻¹ | dissociation rate kd2 [2, 5]: 0.0281 ± 0.0058 s⁻¹ | RUmax1 [2, 6]: 135 | RUmax2 [2, 6]: 23 | high affinity KD1 (kd1/ka1) [2, 7]: 479 ± 241 nM | lower affinity KD2 (kd2/ka2) [2, 7]: 747 ± 203 nM | Kd [3]: 1900 nM | Kd [4]: 205 ± 23 nM
